The nature of the data set: yeast display, Sf9 membrane polyspecificity reagent, FACS + sequencing; frameworks hold sequencing errors. The method, boiled down: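 Nanobodies from a synthetic yeast display library (Saccharomyces cerevisiae BJ5465), induced 36–48 hours with galactose, were stained 1 hour at 4 °C with 10% biotinylated, detergent-solubilized Sf9 membrane reagent, enriched on streptavidin microbeads, then FACS-sorted. Anti-HA (expression) and streptavidin (reagent binding) fluorescence set low and high (top ~1%) gates. Polyreactivity labels come from the gate of origin. Genes were colony-PCR amplified, MiSeq 2 × 250 sequenced and filtered by CDR length.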
Turning to “QVQLVESGGGLVQAGGSLRLSCAASGFTIAYNAMGWYRQAPGKERDLVAAISSSGGRTYYADSVKGRFTISRDNAKNTVYFQMNSLKPEDTAVYYCATRPKVAYEYVYWGQGTQVTVSS”, the “polyreactivity (PSR sort gate)” value is on record as “high polyreactivity”.
Next, “QVQLVESGGGLVQAGGSLRLSCAASGSIFGTNGMGWYRQAPGKERELVAAITRRGGSTYADSVKGRFTISRDNAKNTVYLQMNSLKPEDTAVYYCAAQGYLRLRTHFNYWGQGTQVTVSS”: “low polyreactivity”; “QVQLVESGGGLVQARGSLRLSCAASGLTSRYYAMGWYRQAPGKERELVAAISSRGGRTYYADSVKGPFTISRDNAKNTVYLQMNSLQPEDTAVYYCYAAAGAYSFLSTYNRGEEYWGQGTQVTVSS”: “high polyreactivity”.
Next, “QVQLEESGGGLVQAGDSLRLSCDASGSTFPGYAMGWYRPAPGKERELVAAIYKRGGSTRYADSVKGRFTISRDNAKNTVYLQMNSLKPEDTAVYYCAASYSYSGSGGGYWGQGTQVTVSS”: “high polyreactivity”.
As for “QVQLVESGGGLVQAGGSLRLSCAASGRIFRRYAMGWYRQAPGKEREFVAAISTSGGSTYYADSVKGRFTISRDNAKNTVYLQMNSLKPEDTAVYYCAKRFIYGRYNYWGQGTQVTVSS”, the “polyreactivity (PSR sort gate)” value was “high polyreactivity”.
To “QFQLVESGGGLVQAGGSLRLSCAASGFTFYLYAMGWYRQAPGKERELVAAIRGSGGSTYYADSVKGRFTISRDTAKNSVYLQMNSLKPEDTEVYYCAADYKVSASWYYAYTFYYWGQGTQVTVSS” belongs “low polyreactivity”; to “QVQLVESGGGLVQAGGSLRLSCAASGFIFAYYAMGRYRQAPGKERELVAAITIDGSTYYADSVKGRFTIHDNAKNTVYLQMNRLKPEDTAVYYCNAGRWVYWQNNFGDYGYWGQGTQVTVSS”, “low polyreactivity”; to “QVQLVESGGGLFQAGGSLRLSSAASGFIFWTNVMGWYRQQPGKVRELVAGISKSGGSTYYADSVKGRFTISRDNAKNTVYLQMNCLKPEDTAVYYCAAPRPPAGRYGYWGQGTQVTVSS”, “high polyreactivity”.
To “QVQLVESGGGLVQAGGSLRLSCAASGRIFKPYAMGWYRQAPGKERELVASISRRGGSTYYADSVKGRFTISRDNAKNTVYLQMNSLKPEDTAVYYCNASGTYISLGYDYWGQGTQVTVSS” belongs “high polyreactivity”; to “QVQLVESGGGLVQAGGSLRLSCAASGRTFSANAMGWYRQAPGTEREGVATMTVRGGSTNYADSVKGRFTISRDNAKNTVYLQMNSLKPEDTAVYYCNAYVNSNVRWAYWGFDYCGQGTQVTVSS”, “high polyreactivity”; to “QVQLVESGGGLVQAGGSLRLSCAASGFTFYRYAMGWYRQAPGKERELVAAITRTGSTYYADSVKGRFTISRDNAKNTVYLQMNSLKPEDTAVYYCARRSLYFPSYGLYYWGQGTQVTVSS”, “high polyreactivity”.
To “QVQLVESGGGLVQAGGSLRLSCAASGFIISVYAMGWYRQAPGKERELVARIDSGGSTYYADSVKGRFTISRDNAKNTVYLQMNSLKPEDTAVYYCATDEGTVGGQQLRPLMDYWGQGTQVTVSS” belongs “low polyreactivity”; to “QVQLVESGGGLVQAGGSLRLSCAASGFTFGINAKGWYRQAPGKERELVAALSWSGGSTYYADSVKGRFTISRDNAKNTVYLQMNSLKPEDTAVYYCAVVWFSLWYKGSTFNRYDYWGQGTQVTVSS”, “low polyreactivity”.
Turning to “QVQLVESGGGIVQARGSLRLTSAASGITFQYYTMGWYRQAPGKERELVAGISDSDGDTYYADSVKGRFTISRDNAKKTVFLQMNSLKPEDTALYYCAADGYAYYRATTRFDYWGQGTQVTLSS”, the “polyreactivity (PSR sort gate)” value is listed as “high polyreactivity”.
Next, “QVQLVESGGGLVHAGGSLRLSCAASGSIFHFNAMGWYRQAPGKERELVARISIGGGSTYYADSVKGRFTISRDNAKNTVYFQMNSLKPEDTAVYSCAVDGSPRNKYDYWGQGTQVTVSS”: “high polyreactivity”; “QVQLVESGGGLVQAGGSLRLSCDASGNTFLYNTMGWYRQAPGKEREFVAAISGSGGSTYYADSVKGRFTISRDNAKYTVYLQMNSLKPEDTAVYYCNALWRRRKYDYWGEGTQVTVSS”: “high polyreactivity”; “QVQLVESGGGLVQAGGSLRLSCAASGRIFGYYAMGWYRQAPGKEREWVAAMSTNGGTTYYAYSVKGRFTISRDNAKNTVYLQMNSLKPEDTAVYYCAATYTVPGHARYDYWGQGTQVTVSS”: “low polyreactivity”.
In the case of “QVELVESGGGLVQAGGSLRLSCAASGITFYVYTMGWYRQAPGKERELVAAINGSGGSTNYADSVKGRFTISRDIAKNTVFLQMNSLKPEDSAVYYCAADWSLRLYDYWGQGTQVTVSS”, the “polyreactivity (PSR sort gate)” value is given as “low polyreactivity”.
In the case of “QVQLVDSGGGLVQAGGSLRLSCAASGRTFRSYAMGWYRQAPGKERELVAAITWNGGGTYYADSVKGRFTMSRDNAKNTVYLQMNSLKPEETAVYYCAGRGRTDSYWRFYHWGQGTQVTVSS”, the “polyreactivity (PSR sort gate)” value was “high polyreactivity”.
Next, “QVQPQESGGGLVQAGGSLRLSCAASGTIFAFQTMGWYRQAPGKERELVASITYGSSTNYADSVKGRFTISRDNAKNTVYLQMNSLKPEDTAVYYCAVPQAQYYYDYWGQGTQVTVSS”: “high polyreactivity”; “QVQLVESGGGLVLEGGSLRLSCPASGRIFTWNAMGWYRHAPGKERELVASISRSGTSTYYADSVKGRFTISRDNAKNTVYLQMNSLKPEDTAVYYCAAKRYGYKMYYWGQGTQVTVSS”: “high polyreactivity”.
To “QVQLVETGGGLVQAGGSLHLSCAASGIIIYANDMGWYRQAPGKERELVAGISRNGGRTYYADSVKGRFTISRDNAKNTVYLQMNSLKPEDTAVYYCAARGSYTSIFDYWGQGTQVTVSS” belongs “high polyreactivity”; to “QVQLVESGGGLVQAGGSLRLSCAASGFNFLTYAMGWYRQATGKESELVAAISSSGGRTTYADSVKGRFTISRDNAKNTVYLQMNSLKPEDTAVYYCAVEDYTIVLDYESWGQGTQVTVSS”, “high polyreactivity”.
Next, “QVQLVESGGGLVQAGGSLRLSCAASGRISGRYAMGWYRQAPGKERELVAAITGRGGGTFYADSVKGRFTISRDNAKNTVYLQMNSLKPEDTAVYYCNTDYGSSYNYCGQGTQVTVSS”: “high polyreactivity”; “QVQLVETGGGLVQAGGSLRLSCAASGLILGGYAMGWYRQAHGKERELVAAITRGGGSTFYADSVKGRFTISRDNAKNTVYLQMNSLKPEDTAVYYCAKRYPYRPPGPRYRGLSGYVYWGQGTQVTVSS”: “high polyreactivity”; “QVQLVESGGGLDQAGGSLRLSCAASARIFAAYAMGWYRQAPGKEREFVAAITTAGSTHYADSVKGRFTISRDNAKYTVYLQMNSLKPEDTPVYYCAADGIARAYVLFDAYDFLYDYWGQGTQVTVSS”: “low polyreactivity”.
In the case of “QVQLVESGGGLVQAGGSLRLSCAASGSNSRYAMGWYRHARGKERELVRAITRSGGSTHYADSVKGRFTISRDNAMNTVYLQMNSLKPEDTAVYYCATRYYRGVIRYPYDSWGQGTQVTLSS”, the “polyreactivity (PSR sort gate)” value is recorded as “high polyreactivity”.
Next, “QVQLVESGGGLVQAGGSLRLSCAASGSTFRTNAMGWYRQAPGKERELVARIRYSVGSTYYADSVKGRFTISRDNAKNTVYLQMNSLKPEDTAVYYCAAENQRVGTFREHDSWGQGTQVTVSS”: “low polyreactivity”; “QVQLVESGGGLVQAGGSLRLSCAASGRIFWDNAMGWYRQAPGKERELVAAISGSGGNTYYADSVKGRFTISRDNAKNTVYLQMNSLKPEDTAVYYCNAYGHYTKRYRYGGWFDYWGQGTQVTVSS”: “low polyreactivity”.
As to “QVQLVESGGGLVQAGGSLSLSCAASGIIFGLYTMGWYRQAPGKERELVAAISDSGGRTYYADSVKGRFTISRDNAKNTVYLQMNSLKPEETAVYYCAAEFWYVWEYNYWGQCTQVTVSS”, the “polyreactivity (PSR sort gate)” value was “high polyreactivity”.
Next, “QVQLVDSGGGLVQAGVSLRLSCAASGFIFYRYAMVWYRQAPGKERELVAAINWSGGGTYYADSVKGRFTISRDNAKNTVYLLMNSLKPEDTAVYYCAAVRSFRGSYWYEYWGQGSQVTVSS”: “high polyreactivity”; “QVQLVESGGGLDQAGGSLRLSCAASGITFDFNDLGWYRQAPGKERELVACINGNSDSTYYADSVKGRFTISRDIAKNTVFLQMNSLKPEDTAVYYCNVPTVRYRYDSWGQGTQVTVSS”: “low polyreactivity”.
To “QVQLVESGGGLVQAGGSLRLSCAASGSSFYVNAMGWYRQAPGKEREFVAAITWNSGSTYYADSVKGRFTISRDNEKNTVYLQMNSLKPEDTAVYYCAAVLSGRVYGYDYWGQGTQVTVSS” belongs “low polyreactivity”; to “QVQLVESGGGLVQAGGSLRLSCAASGSTIIRNAMGWYRQAPGKERELVAAISTSAGRTHYADSVKGRFTISRDHAKNTVYLNMNSLKPEDTAVSYCATRGKGHYYYWGQGTKVTVSS”, “high polyreactivity”; to “QVQLVESGGGLVQAGGSLRISCAASGRTFYDNTMGWYRQAPGKERELVAAINWSGTRTYYADSVKARFTISRDNAKNTVYLQMNSLKPEDTAVYYCAADGPFRRTYGYWGLGTQVTVSS”, “low polyreactivity”.
Next, “QVQLVESAGGLVQAGGSLRLSCAASGSTFYAYALGWYRQAPGKERELVAAISSDGTNYADSVKGRFTISRDNAKNTVYLQMNSLKPEDTSVYYCDADLLLYSSQDNDYWGQGTQVPVSS”: “low polyreactivity”.
In the case of “QVQLVESGGGLVQAGGSLRLSCAACGSTFNGYTMGWYRQAPGKERELVAAISKSGGRTYYADSVKGRFTISRDNAKNTVYLQMNSLKPEDTAVYYCNKLTQSSYGWGQGTQVTVSS”, the “polyreactivity (PSR sort gate)” value is on record as “high polyreactivity”.
Next, “QVQLVESGGGLVQAGGSLRLSCAASGRIIALNAMGWYRQAPGKERELVAAISRRGGSTYYADSVKGRFTISRDNAKNTVYLQMNSLKPEDTAVYYCATDSVRYGYDYWGQGTQVTVSS”: “high polyreactivity”; “QVPHVESGGGLVQAGGSLRLSSAASGFIHKSYTMGWYRQAPGKERELVAAISRSGASKYYAYSVKGRFTISRDNAKNTVYLQMNSLKPEDTAVYYCNRRRHNIGTGEYNYWGQGTQVTVSS”: “high polyreactivity”; “QVQLVESGGGIVQAGGSLRLSCAASGIIIAVYAMGWYRQAPGKERELVAAISWSSGNTYYADSVKGRFTISRENAKNTVYLQMNSLNPEDTAVYYCAAVSRYKYDYWGQGTQVTVSS”: “high polyreactivity”.
As for “QVQLVESGGGLVQAGGSHRLSCAASGRTFWYTMGWYRQAPGKERELVAAITWSGGSTYYADSVKGRFTISRDNAMNTVYLQMNSLNPEDTAVYYWNAADYQLWFGYDYWGQGTQVTVSS”, the “polyreactivity (PSR sort gate)” value was “low polyreactivity”.
